# Article PMC4619498
# Biological target: His-tagged recombinant Ebola virus glycoprotein (rGP) expressed in insect cells (Ebola virus (EBOV)) (UniProt Q05320)
# Experiment: ELISA
Substance,GP binding affinity (absorbance normalized by the negative control),absorbance signal ratio between positive binding samples and blanks,ratio of GP-binding affinity to HA-RBD affinity (GP/HA),GP binding affinity (absorbance normalized by the negative control) (normalized units)
Fab-KZ52,16.6,10.2,3.91,–
scFv-13F6,–,13.9,4.48,9.65
scFv-13C6,–,19.1,5,11.1
